Assay [1] has as its target human BLyS 60-mer (human, UniProt Q9Y275). Briefly: SPR.
Assay [2] has as its target T1, cyno FcRn (cynomolgus monkey).
T1 chain 1: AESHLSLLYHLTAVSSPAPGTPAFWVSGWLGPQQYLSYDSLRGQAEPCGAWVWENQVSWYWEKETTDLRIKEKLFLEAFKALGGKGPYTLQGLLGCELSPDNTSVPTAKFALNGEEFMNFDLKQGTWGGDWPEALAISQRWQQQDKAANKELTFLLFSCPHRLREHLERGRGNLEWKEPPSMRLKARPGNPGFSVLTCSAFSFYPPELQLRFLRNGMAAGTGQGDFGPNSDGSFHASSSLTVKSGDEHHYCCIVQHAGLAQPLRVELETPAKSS
T1 chain 2: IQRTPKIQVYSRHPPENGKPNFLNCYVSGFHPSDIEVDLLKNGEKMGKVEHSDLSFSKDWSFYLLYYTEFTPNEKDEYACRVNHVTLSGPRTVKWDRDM
As to the kind of experiment: SPR, pH 6.0.

Assay [3] deals with human FcRn (human, UniProt P55899). Briefly: SPR, pH 6.0.
The target of assay [4] is T2, human BLyS (BAFF) trimer (human, UniProt Q9Y275). As to the kind of experiment: competition, TACI:Fc.
Assay [5] concerns the target T2, human BLyS (BAFF) trimer. Briefly: competition, BCMA:Fc.
Assay [6] addresses T2, human BLyS (BAFF) trimer. Briefly: competition, BAFF-R:Fc.
Assay [7] addresses T2, human BLyS (BAFF) trimer. Briefly: competition, BAFFR on CHO-K1 cells.

B1: Belimumab (antibody)
chain 1: not shown
chain 2: SSELTQDPAVSVALGQTVRVTCQGDSLRSYYASWYQQKPGQAPVLVIYGKNNRPSGIPDRFSGSSSGNTASLTITGAQAEDEADYYCSSRDSSGNHWVFGGGTELTVLGQPKAAPSVTLFPPSSEELQANKATLVCLISDFYPGAVTVAWKADSSPVKAGVETTTPSKQSNNKYAASSYLSLTPEQWKSHRSYSCQVTHEGSTVEKTVAPTECS
For the molecule B1, the binding result in assay [1] is recorded as “no binding”. Also, the Kd was determined as 760000 pM in assay [2] and 753000 pM in assay [3]. For the same molecule, the IC50 in assay [4] is 200 pM; in assay [5], 126 pM; in assay [6], 100 pM; in assay [7], 30.2 pM.

B2: Ab363A (antibody, V domains shown)
VH: QVQLQQSGAEVKKPGSSVRVSCKASGGTFNNDAINWVRQAPGQGLEWMGGIFPMFGTAKYSQNFQGRVAITADESTGTASMELSSLRSEDTAVYYCARSRDPLLYPHHALSPWGRGTMVTVSS
VL: SSELTQDPAVSVALGQTVRVTCQGDSLRYYYASWYQQKPGQAPVLVIYGKNNRPSGIPDRFSGSSSGNTASLTITGAQAEDEADYYCSSRDSSGNNWVFGGGTELTVL
As for B2, the binding result in assay [1] was “no binding”.
